Source: publication PMC7834092

Target: Eno_(N-Strep), N-terminally Strep-tagged enolase encoded at its native locus (Bacillus subtilis), P37869
Experiment: pull-down
Settings: remark: other sources report otherwise

Eno_(N-Strep), N-terminally Strep-tagged enolase encoded at its native locus (Bacillus subtilis), P37869, sequence (P37869 whole entry): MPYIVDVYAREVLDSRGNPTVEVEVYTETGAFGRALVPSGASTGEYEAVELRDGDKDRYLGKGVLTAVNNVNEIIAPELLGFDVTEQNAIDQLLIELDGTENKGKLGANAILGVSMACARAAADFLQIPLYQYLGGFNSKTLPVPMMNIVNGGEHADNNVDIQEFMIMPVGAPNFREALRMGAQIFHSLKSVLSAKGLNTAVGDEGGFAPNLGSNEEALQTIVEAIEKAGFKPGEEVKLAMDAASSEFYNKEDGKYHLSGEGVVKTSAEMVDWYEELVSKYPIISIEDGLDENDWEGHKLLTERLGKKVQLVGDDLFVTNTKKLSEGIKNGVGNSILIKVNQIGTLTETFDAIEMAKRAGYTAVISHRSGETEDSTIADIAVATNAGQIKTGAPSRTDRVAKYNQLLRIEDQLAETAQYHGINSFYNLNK

less RNase Y co-eluted after RNase A treatment of the extract: 20 to 30%
B1: RNase Y (native) of B. subtilis, O31774 1-520 (enzyme)
chain: MTPIMMVLISILLILLGLVVGYFVRKTIAEAKIAGARGAAEQILEDAKRDAEALKKEALLEAKDEIHKLRIDAEQEVRERRNELQKQENRLLQKEENLDRKHEGIDKREAMLEKKDHSLNERQQHIEEMESKVDEMIRMQQSELERISSLTRDEAKQIILERVENELSHDIAIMTKETENRAKEEADKKAKNILSLALQRCAADHVAETTVSVVNLPNDEMKGRIIGREGRNIRTLETLTGIDLIIDDTPEAVILSGFDPIRRETARIALDKLVQDGRIHPARIEEMVEKSRREVDDYIREMGEQTTFEVGVHGLHPDLIKILGRLKFRTSYGQNVLKHSMEVAFLAGLMASELGEDAKLAKRAGLLHDIGKAIDHEVEGSHVEIGVELATKYKEHPVVINSIASHHGDEEPTSIIAVLVAAADALSAARPGARSETLENYIRRLEKLEEISESYEGVEKSFAIQAGREVRIMVKPDSINDLEAHRLARDIRKRIEDELDYPGHIKVTVIRETRAVEYAK
